The results in this text go back to the DeepSol protein solubility set.

A short description of the data set: soluble on expression in E. coli; label from the status in PepcDB or PDB records.
Turning to “MGSDKIHHHHHHMAFTNNVMIVRHKLLAKLVNLWKENKLTNEIDRLPIELSPRRSRPLGRCCIHKERAVYKYKLFPLLGFDMTDETDELTSLSEYARQALERKNKQKENILCVIDEACSSCVQVNYEVTNLCRGCVARSCYMNCPKDAIRFRKNGQAKIDHDACISCGKCHQSCPYHAIVFIPVPCEEACPVKAISKDENGIEHIDESKCIYCGKCLNACPFGAIFEISQAFDVLEGIRSGEKMIAIPAPSILGQFNTSIEAVYGALRQMGFADVVEVAQGAMDTVSHEAAELKEKLEEGQPFMTTSCCPSYIELVNKHIPGMKPYVSSTGSPMYYAARIAKERHPDAKIVFIGPCVAKRKEARRDECVDYILTFEEMASIFEGLDIQLEQTQPFSVLYTSVREAHGFAQAGGVMGAIKAYLGEEAKKFSAIQVSDLNKKNIGLLRAAAKTGKAQGQFIEVMACEGGCISGPSAHNDAIGGRRQLNQELIKRRESYEETHR”, the “soluble on expression in E. coli” value was “not soluble”.

Take “AIARENEAVKPTIQAVYLAAGLSSRFGGRIKCLQEVGRHGETLLELSVRQLCEAYPAISSLVFVVSEATHLPIHALIGEQFYGLPVYFCVQRVPAWRKRPLGTVDALLAAREHIHGPFIVLNGDSLYGVAALSLVCNHITAAKTACMPGYKLREVLPKEGRVNRAIVQTDERHRVLEIVEQYNIGFEDIEEGRYTGDELTSMNVFGFHDTSIFARADERFRRFLSELEALRDDHHLQQQQQSVKRCSTDENDVYAHKEYILSTMLNELLHDAQIELMVLSCNSIRTPLELTNPGDFAFVKNHLDLVGL”: the “soluble on expression in E. coli” value is “soluble”. For “MSGVSTAAYFARRAAQKERVRILYRRALKDTLNWAVHRHIFYRDEDVDRIDKLIAHGEAEYNKWRHPDPYIVPWAPGGSKFCRNPTPPAGIEIVYNYGLEDNP”, the “soluble on expression in E. coli” value was “not soluble”. The same measure for “GSHMTEAEYLANYDPKAFKAQLLTVDAVLFTYHDQQLKVLLVQRSNHPFLGLWGLPGGFIDETCDESLEQTVLRKLAEKTAVVPPYIEQLCTVGNNSRDARGWSVTVCYTALMSYQACQIQIASVSDVKWWPLADVLQMPLAFDHLQLIEQARERLTQKALYSLVPGFALSEPFTLPELQHVHEVLLGKPIQGKSFRRRVEQADLLIDTGLKRTERGRPANLYCLKPDTASYRFLRNLEC”: “soluble”; for “MAHHHHHHMPPSTYAATAANAEAQGDDVDMHVMTYDQRCHGRSTFVGGEDHLSIEVLVRDFLDVLQYAKTELYSNSNVYVLGHSLGGAVVARALSGNKSALERVSGVLLVDVVEGTAQLSLQHMKSFLKNRPNTFPEVKDAEVWFLRMGGMQNPQGAAVSVPPLLQKNDETGLWQWRTDIRKMESVWDGWFAGLDEAFISLPCAKMLCTANAERLDKTLTVAQMQGKFQLEVIGNGCGHYVMDDATPTVVAKVRRFVKRNEELAQKLQLMNKNLSGQKINTTVPPTRT”: “not soluble”; for “MRNILKATTLENKFPLFTVENGCIVSKDADITVAFRVELPELFTVTAAEYEAIHSAWNKAVKVLPDYSIVHKQDWFIKENYAPDIQKDDLSFLSRSFERHFNERPFLNHTCYLFLTKTTKEHSRMQSNFSTLCRGFLVPKEIRDRETVTKFLEAVGQFESIMNDSGFITLTRLSSDEITGTRETAGIVEKYFSLSQTDTTTLKDISLGADEMKIGDNILCLHTLSDAEDMPGKVGTDTRYEKLSTDRSDCRLSFASPVGVLLSCNHIYNQYIFIDDHTENLKQFEKMARNMHSLSKYSRANQINKSWIEEYLNEAHSQGLISVRCHCNIMAWSDDRDELKHIKNDVGSQLALMECKPRHNTTDTPTLFWAGIPGNQADFPAEESFYTFIEQALCLFTEETNYKSSLSPFGIKMVDRVTGKPLHIDISDLPMKRGIITNRNKFILGPSGSGKSFFTNHMVRQYYEQNAHVLLVDTGNSYLGLCEMINRKTHGEDGIYFTYTTENPIAFNPFYVEDGVFDIEKKESIKTLILTLWKRDDEAPTRAEEVALSNAVSSYIGLITKDCSVTPCFNTFYEYVRNDYRAHLQEKNVREKDFDIDNFLNVLEPYYKGGEYDYLLNSDKELDLLHKRFIVFELDNIKDHKILFPITTIIIMEVFINKMRKLKGIRKLILIEEAWKAIASANMADYIKYLYKTVRKYFGEAIVVTQEVEDIISSPIVKESIINNSDCKILLDQRKYLNKFDSIQNLLGLTDKERSQVLSINLANHPNRKYKEVWIGLGGTQSAVYATEVSLDEYFTYTTEETEKMELFALSEKLGGNLELAIKRLAESKRNPEK”: “not soluble”. The value for “MGSDKIHHHHHHMKSMWCIHDRIFLKKTREVFDVDIKAYKERVEKAVEYLKGQIDETPEIAIILGSGLSVIADEVEKEGTSKKIPYSEIPGFPISTAPGHKGELIFGKLFGKNVMLMNGRFHYYEGYSMKEVTFPIRVMQLLGVEILIVTNAAGGLNPDFEVGRPMIITDHINFMGDNPLIGPNVDEWGPRFPDMSEPYDKELIELAYNSARELGIPVYQGVYVAVTGPCFETPAELRMLRKFGADAVGMSTVPEVIVARHGQIRVLGISAITDRAVPEDLKPLTAEEVLEVAEKTGRKIAQIIFEVVRKL” was “not soluble”; that for “MRKEEVLALLRSRWPELCALGVAELYLFGSLARGEARPRSDVDLLVAFATPPGFEGYWRVKEFLESLLGRPVDLVMKGALKPWAVSEVLGEAVRVA” was “soluble”; that for “MKARKAKEFVFNDLLSMESYCINHYSDYYSKSNFSCNVTQLSKGELVTSSICAPINDAHLEIFKSNQTILYEEEANQNSVAFCWINSNGEQAQTNTIISGHKMMDLSIAGFNRLNKTGGNVWDIVGANTQLCCMSLKWEKVKEKINQMNAYNAFAKLEECIGIDSNSSASIQLKSLFERHFTKGLRESEAFYDLAIATLEEPCDLEILTERSDKTELIEDLVKLLYEDREGMPPLTISEITKYLNTEKESLSIACRTNFDMPILDLIKSIRLEQVKKSYLNPHVPKGLKNFTKKQNALYYGFKNWTTFQKFYHQSFQESPDETINKSSKASVLVTDLFTRRS” was “not soluble”. With “MIGMVNVQCDTPLDYYATAPNLLSRDTSVRKRGDSESANASRHNSTKRTPSWRPLFTGQGKKKSSKPKYLQDGRKMTEDGHDEPNKLWEELFLRSFAHKIEQEISSPSPLEAHKNLNSELSKLNIQDKSFYRSTYSLVSPTRIENTDFEELERIENQEKTQDDSKPNRSNSSTERPSSQICSVFLPFIKTIKGNKKKNSITSVNNNTKNS”, the “soluble on expression in E. coli” value is recorded as “not soluble”. The same measure for “MTISTNHSLASRQQLKQGKPFSILVLGTDVGALGRGTSYAGNTDTLELITVNPKKHTLTTTAIPRDTLVRVETKNKIEYTKINAAYALGGPREIKKQVHELLDVPVDYYALVNMGGLEKTVNAVGGVTVNNPFAFKYEGHTYPKGKQYLNGSEALGYSRMRYDDPDNDYGRQKRGQQVLLSALTKVNKSKNIMQMNSLLDTAKDNVRTDLPLDDLMTLYKNYHGALADTQSDHLQGKNATIDNFSFQIAPNWEMQRLSDNTRQALGLTKVKVNNIQTKMNDMQTNWNGYNNVNYVLPNNAQVYIPVNKVLEHHHHHH”: “soluble”; for “MAHHHHHHSLKEAEVLKYEAFTSSPGKGNPAGVVLQGDDYTEDEMQIIAERAGYSETSFIRKSESADLELRYFTPGHEMNLCGHATVASLYALCEKGMLESGKTYSIQTKAGILPVKISEKDGRIHITLEQASPQFKPFTGDRKKLADALGITDEDFHEDLPIVFGSTGIWTAIVPLKSLEASKKMVPDNKQFPEVLVDLPKASVHPFTFETVHPDSDLHGRHFSSPYSGTIEDPVTGTASGVMGAYMKHYGNAEQHKFIIEQGQEIGKDGKVEIEMNEAGGHVKVNMTGTAVYSETRILKIEG”: “not soluble”.
